Laboratory results taken from patent US20230139516A1 (CEDARS SINAI MEDICAL CENTER, published 2023).

Key:
c-Myc = target: T1, c-Myc (human, UniProt P01106-1 1-439, limits assumed); experiment: PLA of endogenous proteins in HEK293T cells (FIG. 21B)
T1 construct: also called c-Myc oncoprotein

[1] = target: T2, receptor-interacting protein kinase 2 (RIPK2), endogenous (human, UniProt O43353 1-540); experiment: PLA of endogenous proteins in HEK293T and parental PC cells (FIG. 20A-B)
T2 construct: Endogenous protein detected in cells with anti-RIPK2 antibodies (PLA, IP)
T2 sequence (O43353 whole entry): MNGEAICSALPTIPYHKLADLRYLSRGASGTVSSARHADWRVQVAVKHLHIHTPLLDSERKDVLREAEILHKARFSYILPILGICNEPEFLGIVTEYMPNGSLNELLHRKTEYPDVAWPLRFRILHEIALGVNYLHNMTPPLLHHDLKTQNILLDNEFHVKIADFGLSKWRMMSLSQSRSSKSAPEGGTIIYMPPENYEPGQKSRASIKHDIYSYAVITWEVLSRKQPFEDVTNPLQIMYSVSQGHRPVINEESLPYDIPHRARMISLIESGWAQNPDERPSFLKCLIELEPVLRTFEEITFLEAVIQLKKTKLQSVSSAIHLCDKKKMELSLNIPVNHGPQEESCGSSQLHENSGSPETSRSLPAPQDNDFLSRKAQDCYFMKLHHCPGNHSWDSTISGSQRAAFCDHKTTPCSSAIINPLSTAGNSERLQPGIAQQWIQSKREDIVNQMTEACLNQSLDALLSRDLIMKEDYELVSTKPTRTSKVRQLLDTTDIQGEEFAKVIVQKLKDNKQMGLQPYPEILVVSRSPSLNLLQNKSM

[2] = target: T3, 3×FLAG-tagged RIPK2 (RIPK2m4 with C-terminal 3×FLAG tag) (human, UniProt O43353 1-540); experiment: IP of RIPK2 complexes, label-free MS (heatmap and LFQ histogram, FIG. 5A-B)
T3 construct: The same label (3×Flag-tagged RIPK2, expressed in HeLa cells) is the enzyme of the in vitro kinase assay; also called RIPK2-Flag; RIPK2m4-3×FLAG; not shown: 3×FLAG tag fused to the C-terminus
T3 sequence (O43353 whole entry, the tested form may be a part): as the sequence (O43353 whole entry) above

T1 sequence (P01106 16-454 limits assumed): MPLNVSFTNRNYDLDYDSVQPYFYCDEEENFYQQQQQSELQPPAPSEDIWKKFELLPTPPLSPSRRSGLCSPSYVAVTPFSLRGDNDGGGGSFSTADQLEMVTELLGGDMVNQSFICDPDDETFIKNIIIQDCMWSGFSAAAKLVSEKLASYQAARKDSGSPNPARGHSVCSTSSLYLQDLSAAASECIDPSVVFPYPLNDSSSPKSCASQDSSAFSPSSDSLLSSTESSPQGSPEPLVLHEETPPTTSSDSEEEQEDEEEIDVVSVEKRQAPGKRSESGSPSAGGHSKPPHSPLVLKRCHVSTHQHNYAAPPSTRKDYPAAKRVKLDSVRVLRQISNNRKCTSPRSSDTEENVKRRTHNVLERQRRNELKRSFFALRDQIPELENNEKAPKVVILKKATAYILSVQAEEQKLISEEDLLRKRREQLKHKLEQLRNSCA

binding result (c-Myc): binds
binding result [1]: binds
binding result [2]: binds
B1: MKK7 (MAP2K7), endogenous (enzyme, human, UniProt O14733 2-419, looked up)
chain: AASSLEQKLSRLEAKLKQENREARRRIDLNLDISPQRPRPTLQLPLANDGGSRSPSSESSPQHPTPPARPRHMLGLPSTLFTPRSMESIEIDQKLQEIMKQTGYLTIGGQRYQAEINDLENLGEMGSGTCGQVWKMRFRKTGHVIAVKQMRRSGNKEENKRILMDLDVVLKSHDCPYIVQCFGTFITNTDVFIAMELMGTCAEKLKKRMQGPIPERILGKMTVAIVKALYYLKEKHGVIHRDVKPSNILLDERGQIKLCDFGISGRLVDSKAKTRSAGCAAYMAPERIDPPDPTKPDYDIRADVWSLGISLVELATGQFPYKNCKTDFEVLTKVLQEEPPLLPGHMGFSGDFQSFVKDCLTKDHRKRPKYNKLLEHSFIKRYETLEVDVASWFKDVMAKTESPRTSGVLSQPHLPFFR
